Reference: patent US20240391954A1, “MC4R AGONIST PEPTIDES” (The Regents of the University of Michigan, priority 2021, published 2024)
Starred links: 1 amine or outer side, 2 acyl side, 3 side chain; linkers in the order of their positions; H or OH if unused. Positions of bridges follow the written chain, without caps; N, C: chain ends. Non-standard residues stand in square brackets, D forms with d. Primed or numbered codes have the meaning given here. dTyr(4-OMe) = O-methyl-D-tyrosine (4-OMe), COc1ccc(C[C@@H](N[*:1])C(=O)[*:2])cc1; dTyr(4-OMe)″ = O-methyl-D-tyrosine, COc1ccc(C[C@@H](N[*:1])C(=O)[*:2])cc1; dDip = N[C@@H](C(=O)O)C(c1ccccc1)c1ccccc1; dPhe(4-Br) = N[C@H](Cc1ccc(Br)cc1)C(=O)O; d2Nal = N[C@H](Cc1ccc2ccccc2c1)C(=O)O; d(αMeF) = C[C@@](N)(Cc1ccccc1)C(=O)O; dNMeF = CN[C@H](Cc1ccccc1)C(=O)O; dTic = O=C(O)[C@H]1Cc2ccccc2CN1; Cit = NC(=O)NCCC[C@H](N)C(=O)O; Nle = CCCC[C@H](N)C(=O)O; Aib = CC(C)(N)C(=O)O

Columns and labels:
Test in all cases: cell-based or functional assay
human MC3R = human MC3R (human, UniProt P41968 1-323)
human MC4R receptor [1] = molecular target: T1, human MC4R receptor (human, UniProt P32245 1-332)
human MC4R receptor [2] = molecular target: T1, human MC4R receptor; remark: listed apart in the source

T1 sequence (P32245 whole entry): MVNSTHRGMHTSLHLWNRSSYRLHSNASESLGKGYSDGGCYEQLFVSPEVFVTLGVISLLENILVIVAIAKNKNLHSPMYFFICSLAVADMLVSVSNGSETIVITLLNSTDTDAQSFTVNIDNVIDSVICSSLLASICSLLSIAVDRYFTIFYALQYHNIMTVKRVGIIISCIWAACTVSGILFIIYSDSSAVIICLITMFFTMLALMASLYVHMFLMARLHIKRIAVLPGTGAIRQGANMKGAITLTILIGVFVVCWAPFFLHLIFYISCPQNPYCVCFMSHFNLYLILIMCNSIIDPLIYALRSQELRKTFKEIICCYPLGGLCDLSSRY
human MC3R, sequence (P41968 whole entry): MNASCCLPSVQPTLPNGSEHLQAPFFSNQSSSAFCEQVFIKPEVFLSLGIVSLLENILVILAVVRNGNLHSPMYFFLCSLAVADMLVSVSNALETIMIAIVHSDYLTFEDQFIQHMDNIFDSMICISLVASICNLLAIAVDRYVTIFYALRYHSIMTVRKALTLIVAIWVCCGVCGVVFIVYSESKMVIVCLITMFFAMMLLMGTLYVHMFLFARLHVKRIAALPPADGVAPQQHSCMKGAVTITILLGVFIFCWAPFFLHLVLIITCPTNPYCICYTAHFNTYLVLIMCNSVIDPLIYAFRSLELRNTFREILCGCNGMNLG

| % max activation (human MC3R) | cAMP EC50 (human MC3R) | % max activation (human MC4R receptor [1]) | cAMP EC50 (human MC4R receptor [1]) | MC4R selectivity vs MC1R (human MC4R receptor [2]) | MC4R selectivity vs MC3R (human MC4R receptor [2]) | Binder |
| --- | --- | --- | --- | --- | --- | --- |
| 22% | 52 nM | 104% | 44 nM | 0.28 | 1.18 | Ac-CGR[dTyr(4-OMe)]RFC-NH2 (disulfide 1-7; SMILES COc1ccc(C[C@H]2NC(=O)[C@H](CCCNC(=N)N)NC(=O)CNC(=O)[C@@H](NC(C)=O)CSSC[C@@H](C(N)=O)NC(=O)[C@H](Cc3ccccc3)NC(=O)[C@H](CCCNC(=N)N)NC2=O)cc1) [CTX-1641] |
| 27% | 10 nM | 100% | 3.4 nM | 3.72 | 3.09 | Ac-CGR[dPhe(4-Br)]RFC-NH2 (disulfide 1-7) [CTX-1640] |
| 13% | 18 nM | 88% | 8 nM | 0.2 | 2.12 | Ac-RC[dA]R[dPhe(4-Br)]RWC-NH2 (disulfide 2-8) [CTX-2205] |
| 0.2% | 11 nM | 13% | 58 nM |  | 0.19 | Ac-RC[dA]P[dPhe(4-Br)]RWC-NH2 (disulfide 2-8; SMILES CC(=O)N[C@@H](CCCNC(=N)N)C(=O)N[C@H]1CSSC[C@@H](C(N)=O)NC(=O)[C@H](Cc2c[nH]c3ccccc23)NC(=O)[C@H](CCCNC(=N)N)NC(=O)[C@@H](Cc2ccc(Br)cc2)NC(=O)[C@@H]2CCCN2C(=O)[C@@H](C)NC1=O) [CTX-2204] |
| 55% | 27 nM | 68% | 13 nM | 0.26 | 2.14 | Ac-R[Nle]CR[dTyr(4-OMe)″]R[dW]C-NH2 (disulfide 3-8; SMILES CCCC[C@H](NC(=O)[C@H](CCCNC(=N)N)NC(C)=O)C(=O)N[C@H]1CSSC[C@@H](C(N)=O)NC(=O)[C@@H](Cc2c[nH]c3ccccc23)NC(=O)[C@H](CCCNC(=N)N)NC(=O)[C@@H](Cc2ccc(OC)cc2)NC(=O)[C@H](CCCNC(=N)N)NC1=O) [CTX-1615] |
| 28% | 3.2 nM | 41% | 1.7 nM | 0.08 | 1.89 | Ac-R[Nle]CR[dTyr(4-OMe)″]RWC-NH2 (disulfide 3-8; SMILES CCCC[C@H](NC(=O)[C@H](CCCNC(=N)N)NC(C)=O)C(=O)N[C@H]1CSSC[C@@H](C(N)=O)NC(=O)[C@H](Cc2c[nH]c3ccccc23)NC(=O)[C@H](CCCNC(=N)N)NC(=O)[C@@H](Cc2ccc(OC)cc2)NC(=O)[C@H](CCCNC(=N)N)NC1=O) [CTX-1614] |
| 1% | 29 nM | 1.4% | 12 nM |  | 2.45 | Ac-RC[dA]P[d2Nal]RWC-NH2 (disulfide 2-8; SMILES CC(=O)N[C@@H](CCCNC(=N)N)C(=O)N[C@H]1CSSC[C@@H](C(N)=O)NC(=O)[C@H](Cc2c[nH]c3ccccc23)NC(=O)[C@H](CCCNC(=N)N)NC(=O)[C@@H](Cc2ccc3ccccc3c2)NC(=O)[C@@H]2CCCN2C(=O)[C@@H](C)NC1=O) [CTX-2203] |
|  | > 10000 nM | 58% | 142 nM | > 70 | > 70 | Ac-RC[Aib][Cit][dTyr(4-OMe)″]R[dW]C-NH2 (disulfide 2-8) [CTX-1600] |

The remaining lines, values behind:

| Binder | % max activation (human MC3R) | cAMP EC50 (human MC3R) | % max activation (human MC4R receptor [1]) | cAMP EC50 (human MC4R receptor [1]) | MC4R selectivity vs MC1R (human MC4R receptor [2]) | MC4R selectivity vs MC3R (human MC4R receptor [2]) |
| --- | --- | --- | --- | --- | --- | --- |
| Ac-RC[Aib]R[dF][Cit][dW]C-NH2 (disulfide 2-8) [CTX-1271] | 16% | 117 nM | 95% | 72 nM | 2.9 | 1.63 |
| Ac-RC[dA]R[dW]RWC-NH2 (disulfide 2-8; SMILES CC(=O)N[C@@H](CCCNC(=N)N)C(=O)N[C@H]1CSSC[C@@H](C(N)=O)NC(=O)[C@H](Cc2c[nH]c3ccccc23)NC(=O)[C@H](CCCNC(=N)N)NC(=O)[C@@H](Cc2c[nH]c3ccccc23)NC(=O)[C@H](CCCNC(=N)N)NC(=O)[C@@H](C)NC1=O) [CTX-1274] | 5.4% | 164 nM | 77% | 1400 nM | 0.19 | 0.12 |
| Ac-RC[dA]R[dNMeF]R[dW]C-NH2 (disulfide 2-8; SMILES CC(=O)N[C@@H](CCCNC(=N)N)C(=O)N[C@H]1CSSC[C@@H](C(N)=O)NC(=O)[C@@H](Cc2c[nH]c3ccccc23)NC(=O)[C@H](CCCNC(=N)N)NC(=O)[C@@H](Cc2ccccc2)N(C)C(=O)[C@H](CCCNC(=N)N)NC(=O)[C@@H](C)NC1=O) [CTX-1272] | 0.9% | 671 nM | 5.3% | 750 nM | 0.21 | 0.9 |
| Ac-RC[dA]R[dTic]R[dW]C-NH2 (disulfide 2-8) [CTX-1273] | 3.7% | 4780 nM | 32% | 7430 nM | 0.05 | 0.64 |
| Ac-RC[dA]R[d(αMeF)]R[dW]C-NH2 (disulfide 2-8; SMILES CC(=O)N[C@@H](CCCNC(=N)N)C(=O)N[C@H]1CSSC[C@@H](C(N)=O)NC(=O)[C@@H](Cc2c[nH]c3ccccc23)NC(=O)[C@H](CCCNC(=N)N)NC(=O)[C@@](C)(Cc2ccccc2)NC(=O)[C@H](CCCNC(=N)N)NC(=O)[C@@H](C)NC1=O) [CTX-1279] | 20% | 43 nM | 79% | 72 nM | 0.83 | 0.61 |
| Ac-RC[dA]R[dF][dR]WC-NH2 (disulfide 2-8; SMILES CC(=O)N[C@@H](CCCNC(=N)N)C(=O)N[C@H]1CSSC[C@@H](C(N)=O)NC(=O)[C@H](Cc2c[nH]c3ccccc23)NC(=O)[C@@H](CCCNC(=N)N)NC(=O)[C@@H](Cc2ccccc2)NC(=O)[C@H](CCCNC(=N)N)NC(=O)[C@@H](C)NC1=O) [CTX-1282] | 4.2% | 545 nM | 72% | 1420 nM | 0.14 | 0.38 |
| Ac-RC[dA]R[dF][dR][dW]C-NH2 (disulfide 2-8; SMILES CC(=O)N[C@@H](CCCNC(=N)N)C(=O)N[C@H]1CSSC[C@@H](C(N)=O)NC(=O)[C@@H](Cc2c[nH]c3ccccc23)NC(=O)[C@@H](CCCNC(=N)N)NC(=O)[C@@H](Cc2ccccc2)NC(=O)[C@H](CCCNC(=N)N)NC(=O)[C@@H](C)NC1=O) [CTX-1283] | 7.8% | 719 nM | 55% | 5860 nM | 0.03 | 0.12 |
| Ac-RC[dA]R[dDip]R[dW]C-NH2 (disulfide 2-8) [CTX-1280] | 2.6% | 541 nM | 4% | 438 nM | 0.1 | 1.24 |
